Each binder was assayed against PPARa:RXRa (Homo sapiens, UniProt Q07869;P19793 full;full) (assay: no ligand; PBM; 270 nM : 90 nM RXRa; PBS pH 7.4, 2% milk, 0.02% Triton X-100, 1 mM DTT, BSA, 0.4 mg/ml salmon testes DNA). Settings: tags: GST kept;His cleaved; copies: 1;1; label: surface-attached array probe.
In short: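 The probes on custom Agilent 4×180K protein-binding microarrays were double-stranded, with 34-nt variable regions bearing direct-repeat seeds, single-nucleotide variants, half-site ablations and random human genomic background sequences. Incubation lasted 1 h with ligand-free nuclear receptor dimers in PBS pH 7.4, 2% milk, 0.02% Triton X-100, 1 mM DTT, 0.2 mg/mL BSA and 0.4 mg/ml salmon testes DNA. Antibodies against each partner (one per run) detected bound dimers, and fluorescence scans were regression-normalized. Binding z-scores take the random background probes as reference.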

Sequence of PPARa:RXRa (Q07869 whole entry, chain 1 of 2): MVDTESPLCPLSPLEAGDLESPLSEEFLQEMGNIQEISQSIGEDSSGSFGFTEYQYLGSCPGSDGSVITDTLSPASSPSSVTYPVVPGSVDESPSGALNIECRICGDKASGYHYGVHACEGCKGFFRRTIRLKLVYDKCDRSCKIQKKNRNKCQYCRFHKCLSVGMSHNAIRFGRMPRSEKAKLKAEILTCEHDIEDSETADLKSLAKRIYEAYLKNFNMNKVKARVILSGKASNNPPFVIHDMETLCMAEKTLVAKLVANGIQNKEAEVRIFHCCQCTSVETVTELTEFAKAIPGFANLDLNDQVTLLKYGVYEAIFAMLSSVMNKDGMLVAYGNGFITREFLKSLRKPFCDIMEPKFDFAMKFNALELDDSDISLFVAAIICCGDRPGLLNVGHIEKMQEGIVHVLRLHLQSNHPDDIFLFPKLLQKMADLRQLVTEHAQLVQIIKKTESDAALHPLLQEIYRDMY
Sequence of PPARa:RXRa (P19793 whole entry, chain 2 of 2): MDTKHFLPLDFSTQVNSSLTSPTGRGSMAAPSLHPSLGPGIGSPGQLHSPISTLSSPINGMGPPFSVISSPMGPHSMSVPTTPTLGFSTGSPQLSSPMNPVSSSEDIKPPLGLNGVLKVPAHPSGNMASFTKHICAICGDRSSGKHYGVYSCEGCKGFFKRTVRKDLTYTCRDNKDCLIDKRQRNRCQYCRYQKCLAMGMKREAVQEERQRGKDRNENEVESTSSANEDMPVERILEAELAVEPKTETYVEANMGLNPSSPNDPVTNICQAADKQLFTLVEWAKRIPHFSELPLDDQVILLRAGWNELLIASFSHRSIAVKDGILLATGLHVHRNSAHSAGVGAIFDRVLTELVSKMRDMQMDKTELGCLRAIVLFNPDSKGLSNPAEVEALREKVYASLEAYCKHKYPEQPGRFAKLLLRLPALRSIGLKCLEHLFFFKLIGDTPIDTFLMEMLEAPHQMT

Binder | binding signal
NRC3_wobSeed124_DR5_A29T_o1 (dsDNA) DNA 1: GCCCTACTGGGCCATTCAGAGGTCATTGTTCATATGGCGATTGACAGCGTAGAATGAAGG DNA 2: CCTTCATTCTACGCTGTCAATCGCCATATGAACAATGACCTCTGAATGGCCCAGTAGGGC | 3.73 PBM z-score against 500 random probes
NRC3_wobSeed40_DR1_G16A_o1 (dsDNA) DNA 1: GCTAGCCTAGGTCATAGGCCAGTATACCACGCGAACGCGATTGACAGCGTAGAATGAAGG DNA 2: CCTTCATTCTACGCTGTCAATCGCGTTCGCGTGGTATACTGGCCTATGACCTAGGCTAGC | 3.72 PBM z-score against 500 random probes
NRC3_wobSeed53_DR2_G9A_o1 (dsDNA) DNA 1: GCCCTTACAGGTCACGAGGTTATAGCACGACGAGCGGCGATTGACAGCGTAGAATGAAGG DNA 2: CCTTCATTCTACGCTGTCAATCGCCGCTCGTCGTGCTATAACCTCGTGACCTGTAAGGGC | 6.65 PBM z-score against 500 random probes
NRC3_wobSeed97_DR4_G27T_o1 (dsDNA) DNA 1: GCCAAACTAGGTCACGAAAGGTCAAATTCGAATGACGCGATTGACAGCGTAGAATGAAGG DNA 2: CCTTCATTCTACGCTGTCAATCGCGTCATTCGAATTTGACCTTTCGTGACCTAGTTTGGC | 7.06 PBM z-score against 500 random probes
NRC3_wobSeed97_DR4_C29G_o1 (dsDNA) DNA 1: GCCAAACTAGGTCACGAAAGGTCAAAGTGGAATGACGCGATTGACAGCGTAGAATGAAGG DNA 2: CCTTCATTCTACGCTGTCAATCGCGTCATTCCACTTTGACCTTTCGTGACCTAGTTTGGC | 6.97 PBM z-score against 500 random probes
NRC3_wobSeed125_DR5_C15G_o1 (dsDNA) DNA 1: GCCCTTACGGGTCAGTGACAGGTTATAGCATTTGGAGCGATTGACAGCGTAGAATGAAGG DNA 2: CCTTCATTCTACGCTGTCAATCGCTCCAAATGCTATAACCTGTCACTGACCCGTAAGGGC | 3.89 PBM z-score against 500 random probes
NRC3_wobSeed41_DR1_T4A_o1 (dsDNA) DNA 1: GCAAATGTAGGTTAAGGGTCATTCAGGTTGGTTCGCGCGATTGACAGCGTAGAATGAAGG DNA 2: CCTTCATTCTACGCTGTCAATCGCGCGAACCAACCTGAATGACCCTTAACCTACATTTGC | 6.91 PBM z-score against 500 random probes
NRC3_wobSeed76_DR3_A16C_o1 (dsDNA) DNA 1: GCCCTACTGGGCCAACAAGGTCATTGATGCCGATAAGCGATTGACAGCGTAGAATGAAGG DNA 2: CCTTCATTCTACGCTGTCAATCGCTTATCGGCATCAATGACCTTGTTGGCCCAGTAGGGC | 3.78 PBM z-score against 500 random probes
NRC3_wobSeed65_DR2_A5C_o1 (dsDNA) DNA 1: GCATCTGTAGGTTATCGGGTCATTCAGTTTGCGCATGCGATTGACAGCGTAGAATGAAGG DNA 2: CCTTCATTCTACGCTGTCAATCGCATGCGCAAACTGAATGACCCGATAACCTACAGATGC | 3.8 PBM z-score against 500 random probes
NRC3_wobSeed30_DR1_T5C_o1 (dsDNA) DNA 1: GCACCAGCAGGCCAAGGGTCACTCAAGATTAGTCCGGCGATTGACAGCGTAGAATGAAGG DNA 2: CCTTCATTCTACGCTGTCAATCGCCGGACTAATCTTGAGTGACCCTTGGCCTGCTGGTGC | 3.87 PBM z-score against 500 random probes
NRC3_wobSeed121_DR5_A26T_o1 (dsDNA) DNA 1: GCCAAACTAGGTCACCGGAAGGTCATAGTCCGCATGGCGATTGACAGCGTAGAATGAAGG DNA 2: CCTTCATTCTACGCTGTCAATCGCCATGCGGACTATGACCTTCCGGTGACCTAGTTTGGC | 6.6 PBM z-score against 500 random probes
NRC3_wobSeed28_DR1_T26C_o1 (dsDNA) DNA 1: GCCCTACTGGGCCAAAGGTCATTGACTCCAATGCTCGCGATTGACAGCGTAGAATGAAGG DNA 2: CCTTCATTCTACGCTGTCAATCGCGAGCATTGGAGTCAATGACCTTTGGCCCAGTAGGGC | 6.99 PBM z-score against 500 random probes
NRC3_wobSeed28_DR1_C12G_o1 (dsDNA) DNA 1: GCCCTACTGGGGCAAAGGTCATTGATTCCAATGCTCGCGATTGACAGCGTAGAATGAAGG DNA 2: CCTTCATTCTACGCTGTCAATCGCGAGCATTGGAATCAATGACCTTTGCCCCAGTAGGGC | 6.86 PBM z-score against 500 random probes
NRC3_wobSeed120_DR4_G5C_o1 (dsDNA) DNA 1: GCCCCAGTAGGTTACGAGGGGGCATTCAGTGCGAATGCGATTGACAGCGTAGAATGAAGG DNA 2: CCTTCATTCTACGCTGTCAATCGCATTCGCACTGAATGCCCCCTCGTAACCTACTGGGGC | 3.76 PBM z-score against 500 random probes
NRC3_wobSeed77_DR3_A18G_o1 (dsDNA) DNA 1: GCACTTACGGGTCAACGGGGTTATAGCACGCGTATAGCGATTGACAGCGTAGAATGAAGG DNA 2: CCTTCATTCTACGCTGTCAATCGCTATACGCGTGCTATAACCCCGTTGACCCGTAAGTGC | 6.51 PBM z-score against 500 random probes
NRC3_wobSeed44_DR1_A6C_o1 (dsDNA) DNA 1: GCTGACTGAGGTTAAAGATCAGGGAACGTGGCGTCGGCGATTGACAGCGTAGAATGAAGG DNA 2: CCTTCATTCTACGCTGTCAATCGCCGACGCCACGTTCCCTGATCTTTAACCTCAGTCAGC | 3.82 PBM z-score against 500 random probes
NRC3_wobSeed66_DR2_A6T_o1 (dsDNA) DNA 1: GCAATTCAGGGTCACTAGGCCAGAGTAGGTACGAATGCGATTGACAGCGTAGAATGAAGG DNA 2: CCTTCATTCTACGCTGTCAATCGCATTCGTACCTACTCTGGCCTAGTGACCCTGAATTGC | 6.63 PBM z-score against 500 random probes
NRC3_wobSeed64_DR2_G19A_o1 (dsDNA) DNA 1: GCTAGCCTAGGTCATTGGACCAGTATAGTACGCATCGCGATTGACAGCGTAGAATGAAGG DNA 2: CCTTCATTCTACGCTGTCAATCGCGATGCGTACTATACTGGTCCAATGACCTAGGCTAGC | 3.84 PBM z-score against 500 random probes
NRC3_wobSeed25_DR1_A5T_o1 (dsDNA) DNA 1: GCCATACTAGGTCAAAGGTCAAAGTCGAGCCAACCAGCGATTGACAGCGTAGAATGAAGG DNA 2: CCTTCATTCTACGCTGTCAATCGCTGGTTGGCTCGACTTTGACCTTTGACCTAGTATGGC | 8.27 PBM z-score against 500 random probes
NRC3_wobSeed25_DR1_G24A_o1 (dsDNA) DNA 1: GCCAAACTAGGTCAAAGGTCAAAATCGAGCCAACCAGCGATTGACAGCGTAGAATGAAGG DNA 2: CCTTCATTCTACGCTGTCAATCGCTGGTTGGCTCGATTTTGACCTTTGACCTAGTTTGGC | 8.04 PBM z-score against 500 random probes
NRC3_wobSeed25_DR1_A6T_o1 (dsDNA) DNA 1: GCCAATCTAGGTCAAAGGTCAAAGTCGAGCCAACCAGCGATTGACAGCGTAGAATGAAGG DNA 2: CCTTCATTCTACGCTGTCAATCGCTGGTTGGCTCGACTTTGACCTTTGACCTAGATTGGC | 8.22 PBM z-score against 500 random probes
NRC3_wobSeed33_DR1_T4G_o1 (dsDNA) DNA 1: GCAGCTCTAGGTAAAAGTTCAGTGAATCCCGAGGATGCGATTGACAGCGTAGAATGAAGG DNA 2: CCTTCATTCTACGCTGTCAATCGCATCCTCGGGATTCACTGAACTTTTACCTAGAGCTGC | 3.86 PBM z-score against 500 random probes
NRC3_wobSeed29_DR1_G24A_o1 (dsDNA) DNA 1: GCGCTTACGGGTCAAAGGTTATAACATGAATAGAATGCGATTGACAGCGTAGAATGAAGG DNA 2: CCTTCATTCTACGCTGTCAATCGCATTCTATTCATGTTATAACCTTTGACCCGTAAGCGC | 7.28 PBM z-score against 500 random probes
NRC3_wobSeed29_DR1_C4A_o1 (dsDNA) DNA 1: GCGATTACGGGTCAAAGGTTATAGCATGAATAGAATGCGATTGACAGCGTAGAATGAAGG DNA 2: CCTTCATTCTACGCTGTCAATCGCATTCTATTCATGCTATAACCTTTGACCCGTAATCGC | 7.27 PBM z-score against 500 random probes

Source: paper PMC6555819, “Comprehensive study of nuclear receptor DNA binding provides a revised framework for understanding receptor specificity”
